# Experimental data reported in patent publication US20150064134A1.
# How the values were obtained:
# Test in all cases: cell-based or functional assay
# CDK5/p35(h) (human) = CDK5/p35(h) (human) (UniProt Q00535)
# CHK2(I157T)(h) (human) = CHK2(I157T)(h) (human) (UniProt O96017)
# DAPK2(h) (human) = DAPK2(h) (human) (UniProt Q9UIK4)
# EphB4(h) (human) = EphB4(h) (human) (UniProt P54760)
# GSK3β(h) (human) = GSK3β(h) (human) (UniProt P49841)
# HIPK1(h) (human) = HIPK1(h) (human) (UniProt Q86Z02)
# IRAK4(h) (human) = molecular target: T1, IRAK4(h) (human) (UniProt Q9NWZ3)
# T1 sequence (looked up): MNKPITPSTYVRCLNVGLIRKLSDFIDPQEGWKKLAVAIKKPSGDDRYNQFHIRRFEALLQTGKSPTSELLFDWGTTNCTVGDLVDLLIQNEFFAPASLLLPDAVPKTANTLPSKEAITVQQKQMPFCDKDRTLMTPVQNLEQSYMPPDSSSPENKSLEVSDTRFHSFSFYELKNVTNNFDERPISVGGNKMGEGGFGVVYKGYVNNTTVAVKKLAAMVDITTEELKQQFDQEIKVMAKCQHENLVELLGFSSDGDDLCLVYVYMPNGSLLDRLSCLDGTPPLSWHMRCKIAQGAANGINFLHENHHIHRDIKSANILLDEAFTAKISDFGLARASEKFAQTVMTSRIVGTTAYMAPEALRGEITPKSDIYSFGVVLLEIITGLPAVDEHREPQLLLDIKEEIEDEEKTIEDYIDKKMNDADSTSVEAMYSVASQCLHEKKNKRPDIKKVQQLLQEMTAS
# MLCK(h) (human) = molecular target: MLCK(h) (human)
# MST2(h) (human) = molecular target: T2, MST2(h) (human) (UniProt Q13188)
# T2 sequence (looked up): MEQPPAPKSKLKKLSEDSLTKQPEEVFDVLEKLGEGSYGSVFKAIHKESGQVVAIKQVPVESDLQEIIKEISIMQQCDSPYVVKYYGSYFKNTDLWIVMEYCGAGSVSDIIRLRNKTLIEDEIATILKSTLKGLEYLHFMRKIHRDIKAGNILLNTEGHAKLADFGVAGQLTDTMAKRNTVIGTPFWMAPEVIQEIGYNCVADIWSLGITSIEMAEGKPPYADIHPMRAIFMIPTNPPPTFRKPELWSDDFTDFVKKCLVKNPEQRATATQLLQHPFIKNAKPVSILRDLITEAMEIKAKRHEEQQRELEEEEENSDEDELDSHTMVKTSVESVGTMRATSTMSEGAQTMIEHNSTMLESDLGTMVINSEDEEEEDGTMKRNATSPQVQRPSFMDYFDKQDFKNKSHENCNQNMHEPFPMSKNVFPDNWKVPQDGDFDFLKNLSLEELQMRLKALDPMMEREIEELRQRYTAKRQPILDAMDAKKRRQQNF
# Mer(h) (human) = molecular target: T3, Mer(h) (human) (UniProt Q12866)
# T3 sequence (looked up): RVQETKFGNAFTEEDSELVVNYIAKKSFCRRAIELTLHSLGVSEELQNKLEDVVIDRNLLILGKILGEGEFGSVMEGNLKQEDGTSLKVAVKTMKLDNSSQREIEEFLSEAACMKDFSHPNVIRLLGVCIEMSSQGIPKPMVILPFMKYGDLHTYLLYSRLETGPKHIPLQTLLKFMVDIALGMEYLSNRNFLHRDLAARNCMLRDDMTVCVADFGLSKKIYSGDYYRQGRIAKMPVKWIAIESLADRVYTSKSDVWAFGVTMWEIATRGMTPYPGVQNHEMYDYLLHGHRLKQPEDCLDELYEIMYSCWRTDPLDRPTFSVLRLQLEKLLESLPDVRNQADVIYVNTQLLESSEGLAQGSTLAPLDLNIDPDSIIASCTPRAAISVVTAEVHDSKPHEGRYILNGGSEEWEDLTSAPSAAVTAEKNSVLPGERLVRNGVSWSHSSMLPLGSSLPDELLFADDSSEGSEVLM
# Mnk2(h) (human) = Mnk2(h) (human) (UniProt Q9HBH9)
# PKCζ(h) (human) = molecular target: T4, PKCζ(h) (human) (UniProt Q05513)
# T4 sequence (looked up): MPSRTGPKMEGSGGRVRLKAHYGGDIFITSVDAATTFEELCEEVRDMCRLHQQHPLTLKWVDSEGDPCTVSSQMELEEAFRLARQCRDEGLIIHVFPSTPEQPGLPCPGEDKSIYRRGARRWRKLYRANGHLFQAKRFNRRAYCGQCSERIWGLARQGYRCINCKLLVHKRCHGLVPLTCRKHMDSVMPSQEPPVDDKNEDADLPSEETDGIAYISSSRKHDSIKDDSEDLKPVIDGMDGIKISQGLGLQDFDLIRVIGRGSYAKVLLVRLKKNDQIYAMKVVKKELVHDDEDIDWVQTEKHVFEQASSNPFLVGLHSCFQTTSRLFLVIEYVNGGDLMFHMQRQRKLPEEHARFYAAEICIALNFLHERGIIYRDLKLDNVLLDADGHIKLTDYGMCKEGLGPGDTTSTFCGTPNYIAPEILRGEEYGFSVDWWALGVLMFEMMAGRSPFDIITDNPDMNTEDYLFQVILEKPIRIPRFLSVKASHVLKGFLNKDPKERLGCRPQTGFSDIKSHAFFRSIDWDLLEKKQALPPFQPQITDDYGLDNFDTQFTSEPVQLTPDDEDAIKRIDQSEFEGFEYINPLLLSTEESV
# ROCK-I(h) (human) = ROCK-I(h) (human) (UniProt Q13464)
# TrkA(h) (human) = TrkA(h) (human) (UniProt P04629)
# ULK3(h) (human) = molecular target: T5, ULK3(h) (human) (UniProt Q6PHR2)
# T5 sequence (looked up): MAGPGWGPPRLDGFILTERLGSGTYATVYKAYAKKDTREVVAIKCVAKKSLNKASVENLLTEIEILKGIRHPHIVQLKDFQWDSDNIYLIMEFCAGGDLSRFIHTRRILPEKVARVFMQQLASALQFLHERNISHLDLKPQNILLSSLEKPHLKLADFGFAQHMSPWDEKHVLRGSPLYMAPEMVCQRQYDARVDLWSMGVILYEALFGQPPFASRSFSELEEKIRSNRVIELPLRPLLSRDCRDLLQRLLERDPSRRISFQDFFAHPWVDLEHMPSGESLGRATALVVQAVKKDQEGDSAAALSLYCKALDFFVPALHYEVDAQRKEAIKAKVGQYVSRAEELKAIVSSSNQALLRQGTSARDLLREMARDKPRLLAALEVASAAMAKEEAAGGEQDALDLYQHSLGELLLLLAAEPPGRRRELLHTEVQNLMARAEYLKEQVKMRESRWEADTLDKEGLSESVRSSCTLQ
# CHK2(I157T)(h) (human), sequence (O96017 5-543 I157T limits assumed): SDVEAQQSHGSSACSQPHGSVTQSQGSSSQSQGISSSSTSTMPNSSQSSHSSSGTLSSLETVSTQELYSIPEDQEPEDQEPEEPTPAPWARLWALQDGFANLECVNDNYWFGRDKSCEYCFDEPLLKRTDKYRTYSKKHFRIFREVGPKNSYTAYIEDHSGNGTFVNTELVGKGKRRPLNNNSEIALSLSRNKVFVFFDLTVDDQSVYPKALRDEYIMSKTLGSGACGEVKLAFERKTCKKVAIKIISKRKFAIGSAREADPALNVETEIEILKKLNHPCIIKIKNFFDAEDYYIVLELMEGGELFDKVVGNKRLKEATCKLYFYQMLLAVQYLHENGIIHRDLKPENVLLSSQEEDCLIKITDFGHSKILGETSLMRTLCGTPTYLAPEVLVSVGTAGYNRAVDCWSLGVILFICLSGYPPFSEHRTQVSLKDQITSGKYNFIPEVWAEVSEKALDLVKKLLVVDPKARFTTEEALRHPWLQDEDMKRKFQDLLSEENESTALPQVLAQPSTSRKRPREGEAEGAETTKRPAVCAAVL
# EphB4(h) (human), sequence (P54760 561-987 limits assumed): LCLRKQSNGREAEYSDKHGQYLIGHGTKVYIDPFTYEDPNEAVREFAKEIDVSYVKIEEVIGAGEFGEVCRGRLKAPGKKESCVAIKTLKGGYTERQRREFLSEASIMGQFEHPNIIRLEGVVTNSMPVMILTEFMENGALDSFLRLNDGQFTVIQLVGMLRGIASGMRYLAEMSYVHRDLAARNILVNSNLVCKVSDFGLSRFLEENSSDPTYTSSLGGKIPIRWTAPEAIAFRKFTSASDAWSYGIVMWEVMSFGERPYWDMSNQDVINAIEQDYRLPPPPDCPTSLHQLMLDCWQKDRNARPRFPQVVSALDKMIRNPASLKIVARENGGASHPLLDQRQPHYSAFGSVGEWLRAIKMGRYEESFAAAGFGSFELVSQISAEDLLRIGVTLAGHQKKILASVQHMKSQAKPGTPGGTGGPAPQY
Substance,% activity at 100 µM (CDK5/p35(h) (human)),% activity at 100 µM (CHK2(I157T)(h) (human)),% activity at 100 µM (DAPK2(h) (human)),% activity at 100 µM (EphB4(h) (human)),% activity at 100 µM (GSK3β(h) (human)),% activity at 100 µM (HIPK1(h) (human)),% activity at 100 µM (IRAK4(h) (human)),% activity at 100 µM (MLCK(h) (human)),% activity at 100 µM (MST2(h) (human)),% activity at 100 µM (Mer(h) (human)),% activity at 100 µM (Mnk2(h) (human)),% activity at 100 µM (PKCζ(h) (human)),% activity at 100 µM (ROCK-I(h) (human)),% activity at 100 µM (TrkA(h) (human)),% activity at 100 µM (ULK3(h) (human))
MMI-0300 (peptide),79%,43%,32%,44%,205%,74%,59%,2%,19%,52%,89%,81%,79%,25%,167%
MMI-0400 (peptide),76%,41%,16%,28%,202%,91%,59%,1%,11%,50%,86%,75%,73%,17%,147%
MMI-0500 (peptide),59%,3%,3%,38%,238%,47%,3%,0%,2%,17%,6%,7%,17%,24%,177%
